Residue numbers refer to the chain shown, from its start. Like-named read-outs stand apart in the source and are kept apart here. Each block holds one binder with its values, some of them ahead of it. Ends that are not written are not given here.
What was measured:
[1] = target: T1, Human CXCR2 (human, UniProt P25025 1-360); test: cell-based or functional assay
T1 sequence: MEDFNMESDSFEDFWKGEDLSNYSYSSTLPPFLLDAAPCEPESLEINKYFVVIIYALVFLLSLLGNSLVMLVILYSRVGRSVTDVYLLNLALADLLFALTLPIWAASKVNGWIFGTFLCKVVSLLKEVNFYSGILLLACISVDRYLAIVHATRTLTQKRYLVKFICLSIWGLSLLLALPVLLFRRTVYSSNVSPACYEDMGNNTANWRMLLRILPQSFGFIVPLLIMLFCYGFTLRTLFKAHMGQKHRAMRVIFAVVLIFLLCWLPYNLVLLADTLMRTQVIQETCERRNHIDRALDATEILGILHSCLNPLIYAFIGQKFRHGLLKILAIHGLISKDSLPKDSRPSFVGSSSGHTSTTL

[2] = target: T1, Human CXCR2; test: cell-based or functional assay; remark: listed apart in the source
[3] = target: T2, Cynomolgus CXCR2 (cynomolgus, UniProt Q28519 3-353 (rhesus entry)); test: cell-based or functional assay
T2 chain: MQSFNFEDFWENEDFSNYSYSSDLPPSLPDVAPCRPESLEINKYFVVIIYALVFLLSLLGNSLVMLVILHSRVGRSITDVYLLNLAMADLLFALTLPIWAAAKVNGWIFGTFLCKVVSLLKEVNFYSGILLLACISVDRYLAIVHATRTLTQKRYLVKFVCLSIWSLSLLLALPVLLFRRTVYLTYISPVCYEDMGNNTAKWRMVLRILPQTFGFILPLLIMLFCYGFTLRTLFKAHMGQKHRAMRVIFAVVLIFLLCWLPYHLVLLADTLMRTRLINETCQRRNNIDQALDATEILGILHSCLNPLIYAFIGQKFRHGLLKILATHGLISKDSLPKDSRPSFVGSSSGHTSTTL

[4] = target: T1, Human CXCR2; test: FACS hGro-α competition
[5] = target: T2, Cynomolgus CXCR2; test: FACS hGro-α competition
[6] = target: T3, Human 1to19 peptide (human); test: ELISA, periplasmic extract on biotinylated peptide
T3 construct: First 19 N-terminal amino acids of human CXCR2, captured on neutravidin; also called human CXCR2 1 to19 peptide; 1-19 Nter peptide
T3 peptide: MEDFNMESDSFEDFWKGED-biotin
Description: In another setup, periplasmic extracts were analyzed for binding to human 1 to 19 peptide by ELISA. MaxiSorb plates (Nunc, 430341) were coated for two hours with neutravidin followed by one hour blocking (PBS, 1% casein). Then 100 nM biotinylated human 1 to 19 peptide was added to these plates for one hour (PBS, 0.1% casein, 0.05% tween20) followed by one hour incubation with 10-fold dilutions of periplasmic extracts. Unbound periplasmic extracts were washed away (PBS supplemented with 0.05% tween20) and bound Nanobodies were detected using mouse anti-myc (Roche, 11667149001) followed by rabbit anti-mouse-HRP conjugate (Dakocytomation, P0260). Table 8 summarizes the ratios of the binding signals of anti-CXCR2Nanobodies over an irrelevant control Nanobody.

[7] = target: T1, Human CXCR2; test: cell-based or functional assay; remark: listed apart in the source
[8] = target: T2, Cynomolgus CXCR2; test: cell-based or functional assay
[9] = target: T1, Human CXCR2; test: cell-based or functional assay; remark: listed apart in the source
[10] = target: T2, Cynomolgus CXCR2; test: cell-based or functional assay
[11] = target: T1, Human CXCR2; test: FACS, periplasmic extract vs FMAT Blue Gro-α
Description: Periplasmic extracts (as described above) were analyzed on FACS for competition with Gro-α in binding to human CXCR2. 2×10⁵ cells were incubated with a ½ dilution of periplasmic extracts in FACS buffer (PBS+10% fetal bovine serum (Sigma, F7524)) for 30 minutes at 4° C. Then, an equal volume of 6 nM of FMAT Blue-labeled human Gro-α in FACS buffer was added and incubation was continued for another 30 minutes at 4° C. in the dark. Cells were then washed three times in FACS buffer and finally resuspended in FACS buffer. Dead cells were stained with propidium iodide (Sigma, P4170). Samples were then analyzed on a FACSarray (BD Biosciences).

[12] = target: T1, Human CXCR2; test: FACS competition vs 3 nM FMAT-Blue Gro-α
Description: (§1) Purified monovalent anti-CXCR2Nanobodies were titrated against 3 nM FMAT-Blue-labeled Gro-α in the FACS ligand competition assay on human and cynomolgus CXCR2 (Table 10). On human CXCR2, blocking potencies range between double digit nM and sub-nM whereas on cynomolgus CXCR2, they range between single and double digit nM.

[13] = target: T2, Cynomolgus CXCR2; test: FACS competition vs 3 nM FMAT-Blue Gro-α
Description: as §1

[14] = target: T1, Human CXCR2; test: FACS hGro-α competition; remark: listed apart in the source
[15] = target: T2, Cynomolgus CXCR2; test: FACS hGro-α competition
[16] = target: T1, Human CXCR2; test: cell-based or functional assay; remark: listed apart in the source
[17] = target: T2, Cynomolgus CXCR2; test: cell-based or functional assay
[18] = target: T1, Human CXCR2; test: cell-based or functional assay; remark: listed apart in the source
[19] = target: T2, Cynomolgus CXCR2; test: cell-based or functional assay
[20] = target: T1, Human CXCR2; test: FACS hGro-α competition; remark: listed apart in the source
[21] = target: T2, Cynomolgus CXCR2; test: FACS hGro-α competition

- IC50 (M) at 5 nM GROα (inhibition of GRO-α, FIG. 2) [1]: 1.64e-09 M
- IC50 (M) at 15 nM GROα (inhibition of GRO-α, FIG. 2) [1]: 2.04e-09 M
- IC50 (M) at 45 nM GROα (inhibition of GRO-α, FIG. 2) [1]: 3.26e-09 M
- IC50 (M) at 150 nM GROα (inhibition of GRO-α, FIG. 2) [1]: 4.6e-09 M
- FLIPR hGro-α IC50 [2]: 15 nM
- FLIPR hGro-α IC50 [3]: 1.1 µM
- IC50 [4]: 0.55 nM
- IC50 [5]: 6.1 nM
- ratio of binding signal relative to blank control [6]: 39.5 ratio
- Human Chemotaxis IC50 (GROα) [7]: 14 nM
- Human WBSC IC50 (rhGROα) [7]: 4.9 nM
- Cynomologus WBSC IC50 (rhGROα) [8]: > 100 nM
- FLIPR % inhibition max [9]: 100%
- FLIPR IC50 (GRO-α induced calcium release) [9]: 21.9 nM
- [35S]GTPγS % inhibition max (GRO-α) [9]: 66%
- [35S]GTPγS IC50 (GRO-α) [9]: 12.5 nM
- FLIPR % inhibition max [10]: 100%
- FLIPR IC50 (GRO-α induced calcium release) [10]: 753 nM
- FACS Gro-α competition (% inhibition) [11]: 46.7%
- % inhibition of max [12]: 61.1%
- IC50 [12]: 0.309 nM
- % inhibition of max [13]: 82.6%
- IC50 [13]: 4.41 nM
B1: 127D1 (VHH)
VHH: EVQLVESGGGLVQAGESLRLSCAASGSTFDFKVMGWYRQPPGKQREGVAAIRLSGNMHYAESVKGRFTISKANAKNTVYLQMNSLRPEDTAVYYCKVNIRGQDYWGQGTQVTVSS
notes: Tested as periplasmic extract (pAX50) and as purified His6-tagged protein (pAX100); also called 127D01; not shown: C-terminal c-myc tag and His6 tag coded by the vector

- FLIPR hGro-α IC50 [18]: 73 nM
- FLIPR hGro-α IC50 [19]: 85 nM
- IC50 [20]: 2 nM
- IC50 [21]: 4.8 nM
B4: CXCR20086 (VHH)
VHH: EVQLLESGGGLVQPGGSLRLSCAASGRTFSDYAMGWFRQAPGKEREFVAAITWNGGRVFYTASVKGRFTISRDNSKNTLYLQMNSLRPEDTAVYYCAADKDRRTDYLGHPVAYWGQGTLVTVSS

The next lines start with the binder.

B2: 2B2 (VHH)
VHH: EVQLVESGGELVQPGGSLRLSCAASGSILTINAMGWYRQAPGKQRELVVRRTRGGSTTYQDSVKGRFTISADIAKKTMYLQMNSLKPEDTAVYYCMLDDRGGVYWGQGTQVTVSS
notes: Tested as periplasmic extract (pAX50) and as purified His6-tagged protein (pAX100); also called 002B02; not shown: C-terminal c-myc tag and His6 tag coded by the vector
- IC50 [14]: 1.3 nM
- IC50 [15]: 35 nM
- ratio of binding signal relative to blank control [6]: 58.6 ratio
- Human Chemotaxis IC50 (GROα) [7]: 212 nM
- Human WBSC IC50 (rhGROα) [7]: 29.5 nM
- Cynomologus WBSC IC50 (rhGROα) [8]: > 100 nM
- FLIPR % inhibition max [9]: 100%
- FLIPR IC50 (GRO-α induced calcium release) [9]: 441 nM
- [35S]GTPγS % inhibition max (GRO-α) [9]: 71.3%
- [35S]GTPγS IC50 (GRO-α) [9]: 103 nM
- FLIPR % inhibition max [10]: 100%
- FLIPR IC50 (GRO-α induced calcium release) [10]: 3850 nM
- FACS Gro-α competition (% inhibition) [11]: 38.1%
- FLIPR hGro-α IC50 [16]: 650 nM
- FLIPR hGro-α IC50 [17]: 24 µM
- % inhibition of max [12]: 42.7%
- IC50 [12]: 2.07 nM
- % inhibition of max [13]: 64%
- IC50 [13]: 31.6 nM

B3: 163D2 (VHH)
VHH: B4 VHH with L5V, P14A, S75A, L79M, R87K, L119Q
notes: Tested as periplasmic extract (pAX50) and as purified His6-tagged protein (pAX100); also called 163D02; not shown: C-terminal c-myc tag and His6 tag coded by the vector
- ratio of binding signal relative to blank control [6]: 0.5 ratio
- Human WBSC IC50 (rhGROα) [7]: 6.6 nM
- Cynomologus WBSC IC50 (rhGROα) [8]: > 100 nM
- FLIPR hGro-α IC50 [18]: 66 nM
- FLIPR hGro-α IC50 [19]: 92 nM
- FLIPR % inhibition max [9]: 100%
- FLIPR IC50 (GRO-α induced calcium release) [9]: 1.91 nM
- [35S]GTPγS % inhibition max (GRO-α) [9]: 100%
- [35S]GTPγS IC50 (GRO-α) [9]: 53.2 nM
- FLIPR % inhibition max [10]: 100%
- FLIPR IC50 (GRO-α induced calcium release) [10]: 37.2 nM
- FACS Gro-α competition (% inhibition) [11]: 86.8%
- IC50 [20]: 2.8 nM
- IC50 [21]: 7.1 nM
- % inhibition of max [12]: 96.4%
- IC50 [12]: 6.95 nM
- % inhibition of max [13]: 91%
- IC50 [13]: 14.8 nM
